{"source": "paper PMC6125681", "about": "“Stability of local secondary structure determines selectivity of viral RNA chaperones”", "key": {"[1]": {"target": "avian reovirus (ARV) σNS (avian reovirus)", "experiment": "native MS; nanoESI-IMS-MS of σNS apoprotein, 20 μM, 200 mM ammonium acetate pH 7.6; no RNA"}, "[2]": {"target": "avian reovirus (ARV) σNS (avian reovirus)", "experiment": "native MS; nanoESI-IMS-MS of σNS apoprotein, 20 μM, 200 mM ammonium acetate pH 7.6; no RNA", "remark": "listed apart in the source"}, "[3]": {"target": "avian reovirus (ARV) σNS (avian reovirus)", "experiment": "native MS; nanoESI-IMS-MS of σNS–RNP complex (σNS saturated with unstructured 20mer RNA), 20 μM, 200 mM ammonium acetate pH 7.6"}, "[4]": {"target": "T1, σNS (Avian reovirus (strain not given)) (UniProt W8NR44)", "T1 sequence": "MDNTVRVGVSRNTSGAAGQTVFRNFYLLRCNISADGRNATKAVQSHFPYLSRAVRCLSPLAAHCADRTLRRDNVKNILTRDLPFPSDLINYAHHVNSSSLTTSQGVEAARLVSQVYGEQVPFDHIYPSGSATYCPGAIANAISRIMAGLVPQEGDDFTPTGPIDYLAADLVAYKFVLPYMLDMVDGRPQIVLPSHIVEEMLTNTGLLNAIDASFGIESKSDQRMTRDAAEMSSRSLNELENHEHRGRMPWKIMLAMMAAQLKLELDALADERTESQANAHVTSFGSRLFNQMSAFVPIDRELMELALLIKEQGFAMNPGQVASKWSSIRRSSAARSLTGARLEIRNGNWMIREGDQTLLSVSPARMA", "experiment": "fluorescence anisotropy"}, "NSP2 [5]": {"target": "T2, NSP2 (Rotavirus (strain  in …, UniProt A2T3N6 1-317))", "T2 sequence": "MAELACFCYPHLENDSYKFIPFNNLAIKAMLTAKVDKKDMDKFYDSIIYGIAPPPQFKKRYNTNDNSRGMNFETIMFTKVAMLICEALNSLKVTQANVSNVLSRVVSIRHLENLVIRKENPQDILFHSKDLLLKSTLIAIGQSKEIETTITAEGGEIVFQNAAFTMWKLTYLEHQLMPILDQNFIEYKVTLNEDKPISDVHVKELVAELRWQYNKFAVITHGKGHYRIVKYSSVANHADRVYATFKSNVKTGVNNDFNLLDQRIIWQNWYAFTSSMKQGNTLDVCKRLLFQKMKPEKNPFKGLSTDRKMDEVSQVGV", "experiment": "fluorescence anisotropy; no Mg2+; one value given for all three RNAs", "conditions": "protein: recombinant, chain copies: 8, label: 5' AlexaFluor488, hairpin"}, "NSP2 [6]": {"target": "T2, NSP2", "experiment": "single-pair FRET; 25 nM protein; binds folded and unfolded RNA", "conditions": "protein: recombinant; chain copies: 8; Methods state the reverse; hairpin, -8.9 kcal/mol"}, "NSP2 [7]": {"target": "T2, NSP2", "experiment": "FCCS; multiple RNAs per octamer", "conditions": "protein: recombinant; chain copies: 8; label: Cy3 or Cy5 (same string printed for both); unstructured; text calls the two labelled RNAs distinct non-complementary"}, "NSP2 [8]": {"target": "T2, NSP2", "experiment": "fluorescence anisotropy; 10 mM MgCl2", "conditions": "protein: recombinant; chain copies: 8; label: 5' AlexaFluor488; unstructured, MFE 0"}, "NSP2 [9]": {"target": "T2, NSP2", "experiment": "fluorescence anisotropy; no Mg2+", "conditions": "protein: recombinant; chain copies: 8; label: 5' AlexaFluor488; unstructured, MFE 0"}}, "note": "Values joined by “and” are separate entries in the source; they are usually repeats but may differ in a detail not shown here. Identical values can stand only once."}
{"molecule": "avian reovirus (ARV) σNS (natural protein)", "values": [{"measurement": "stoichiometry N", "setting": "[1]", "value": 8}, {"measurement": "stoichiometry N", "setting": "[2]", "value": 6}, {"measurement": "stoichiometry N", "setting": "[3]", "value": "8 and 6"}]}
{"molecule": "CUUCUUUCGAAAUUAAGAAG [metastable 20mer]", "values": [{"measurement": "Kd", "setting": "[4]", "value": 24, "unit": "nM"}]}
{"molecule": "UCUUUGCAAACAUGCAAAGA [stable 20mer hairpin]", "values": [{"measurement": "Kd", "setting": "[4]", "value": 137, "unit": "nM"}]}
{"molecule": "CUUUUCAAGACAUGCAACAA [unstructured 20mer]", "values": [{"measurement": "Kd", "setting": "[4]", "value": 37, "unit": "nM"}, {"measurement": "binding signal (fold Kd increase vs no Mg2+)", "setting": "[4]", "value": 1.5}]}
{"molecule": "UCUUUGCAAACAUGCAAAGA (structured_RNA)", "note": "[stable 20mer hairpin]", "values": [{"measurement": "Kd", "setting": "NSP2 [5]; -8.1 kcal/mol", "value": "~20", "unit": "nM"}]}
{"molecule": "AAAUCUUUGCAAACUAUCCAAUCCAUGCAAAGAUAA (structured_RNA)", "note": "[dual-labelled 36mer stem-loop]", "values": [{"measurement": "binding result", "setting": "NSP2 [6]", "value": "binds"}]}
{"molecule": "CUUCUUUCGAAAUUAAGAAG (structured_RNA)", "note": "[metastable 20mer]", "values": [{"measurement": "Kd", "setting": "NSP2 [5]; -3.8 kcal/mol", "value": "~20", "unit": "nM"}]}
{"molecule": "UUCCUUCUAUUUCUUCU (ssRNA)", "note": "[17mer (S11-derived)]", "values": [{"measurement": "binding result", "setting": "NSP2 [7]", "value": "binds"}]}
{"molecule": "CUUUUCAAGACAUGCAACAA (ssRNA)", "note": "[unstructured 20mer]", "values": [{"measurement": "Kd", "setting": "NSP2 [8]", "value": "28 ± 1.48", "unit": "nM"}, {"measurement": "Kd", "setting": "NSP2 [9]", "value": "20.7 ± 1.67", "unit": "nM"}]}
